To fix the notation:
B1: Mitogen-activated protein kinase kinase kinase 14 (Homo sapiens), Q99558 (parent)
chain: MAVMEMACPGAPGSAVGQQKELPKAKEKTPPLGKKQSSVYKLEAVEKSPVFCGKWEILNDVITKGTAKEGSEAGPAAISIIAQAECENSQEFSPTFSERIFIAGSKQYSQSESLDQIPNNVAHATEGKMARVCWKGKRRSKARKKRKKKSSKSLAHAGVALAKPLPRTPEQESCTIPVQEDESPLGAPYVRNTPQFTKPLKEPGLGQLCFKQLGEGLRPALPRSELHKLISPLQCLNHVWKLHHPQDGGPLPLPTHPFPYSRLPHPFPFHPLQPWKPHPLESFLGKLACVDSQKPLPDPHLSKLACVDSPKPLPGPHLEPSCLSRGAHEKFSVEEYLVHALQGSVSSGQAHSLTSLAKTWAARGSRSREPSPKTEDNEGVLLTEKLKPVDYEYREEVHWATHQLRLGRGSFGEVHRMEDKQTGFQCAVKKVRLEVFRAEELMACAGLTSPRIVPLYGAVREGPWVNIFMELLEGGSLGQLVKEQGCLPEDRALYYLGQALEGLEYLHSRRILHGDVKADNVLLSSDGSHAALCDFGHAVCLQPDGLGKSLLTGDYIPGTETHMAPEVVLGRSCDAKVDVWSSCCMMLHMLNGCHPWTQFFRGPLCLKIASEPPPVREIPPSCAPLTAQAIQEGLRKEPIHRVSAAELGGKVNRALQQVGGLKSPWRGEYKEPRHPPPNQANYHQTLHAQPRELSPRAPGPRPAEETTGRAPKLQPPLPPEPPEPNKSPPLTLSKEESGMWEPLPLSSLEPAPARNPSSPERKATVPEQELQQLEIELFLNSLSQPFSLEEQEQILSCLSIDSLSLSDDSEKNPSKASQSSRDTLSSGVHSWSSQAEARSSSWNMVLARGRPTDTPSYFNGVKVQIQSLNGEHLHIREFHRVKVGDIATGISSQIPAAAFSLVTKDGQPVRYDMEVPDSGIDLQCTLAPDGSFAWSWRVKHGQLENRP
partner: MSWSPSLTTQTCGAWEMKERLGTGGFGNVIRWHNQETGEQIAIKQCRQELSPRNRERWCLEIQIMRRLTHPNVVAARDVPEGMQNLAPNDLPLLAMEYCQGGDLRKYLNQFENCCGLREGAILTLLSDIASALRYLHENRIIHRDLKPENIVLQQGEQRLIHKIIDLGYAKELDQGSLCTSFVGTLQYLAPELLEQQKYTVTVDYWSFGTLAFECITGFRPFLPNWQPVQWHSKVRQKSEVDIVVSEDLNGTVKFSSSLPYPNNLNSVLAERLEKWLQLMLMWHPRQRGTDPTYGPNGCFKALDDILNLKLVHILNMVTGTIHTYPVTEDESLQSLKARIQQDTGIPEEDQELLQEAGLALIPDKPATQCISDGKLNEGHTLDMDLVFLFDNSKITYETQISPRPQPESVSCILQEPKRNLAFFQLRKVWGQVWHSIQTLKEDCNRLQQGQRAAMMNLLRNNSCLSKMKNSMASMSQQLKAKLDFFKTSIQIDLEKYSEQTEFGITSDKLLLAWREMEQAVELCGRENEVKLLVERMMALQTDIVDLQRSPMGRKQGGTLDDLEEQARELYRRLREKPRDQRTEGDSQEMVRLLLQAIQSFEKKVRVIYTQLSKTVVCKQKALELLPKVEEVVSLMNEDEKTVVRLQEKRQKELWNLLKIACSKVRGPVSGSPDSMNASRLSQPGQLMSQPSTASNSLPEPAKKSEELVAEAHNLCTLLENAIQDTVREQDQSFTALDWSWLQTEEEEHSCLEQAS
B2: Inhibitor of nuclear factor kappa-B kinase subunit alpha (Homo sapiens), O15111 (parent)
chain: MERPPGLRPGAGGPWEMRERLGTGGFGNVCLYQHRELDLKIAIKSCRLELSTKNRERWCHEIQIMKKLNHANVVKACDVPEELNILIHDVPLLAMEYCSGGDLRKLLNKPENCCGLKESQILSLLSDIGSGIRYLHENKIIHRDLKPENIVLQDVGGKIIHKIIDLGYAKDVDQGSLCTSFVGTLQYLAPELFENKPYTATVDYWSFGTMVFECIAGYRPFLHHLQPFTWHEKIKKKDPKCIFACEEMSGEVRFSSHLPQPNSLCSLVVEPMENWLQLMLNWDPQQRGGPVDLTLKQPRCFVLMDHILNLKIVHILNMTSAKIISFLLPPDESLHSLQSRIERETGINTGSQELLSETGISLDPRKPASQCVLDGVRGCDSYMVYLFDKSKTVYEGPFASRSLSDCVNYIVQDSKIQLPIIQLRKVWAEAVHYVSGLKEDYSRLFQGQRAAMLSLLRYNANLTKMKNTLISASQQLKAKLEFFHKSIQLDLERYSEQMTYGISSEKMLKAWKEMEEKAIHYAEVGVIGYLEDQIMSLHAEIMELQKSPYGRRQGDLMESLEQRAIDLYKQLKHRPSDHSYSDSTEMVKIIVHTVQSQDRVLKELFGHLSKLLGCKQKIIDLLPKVEVALSNIKEADNTVMFMQGKRQKEIWHLLKIACTQSSARSLVGSSLEGAVTPQTSAWLPPTSAEHDHSLSCVVTPQDGETSAQMIEENLNCLGHLSTIIHEANEEQGNSMMNLDWSWLTE
B3: Mitogen-activated protein kinase kinase kinase 14 (Homo sapiens), Q99558 (parent)
chain: B1 chain
partner: B2 chain
B4: Inhibitor of nuclear factor kappa-B kinase subunit beta (Homo sapiens), O14920 (parent)
chain: B1 partner

The first test covers variants of B1. Particulars: with ikkb_human IKBKB.
For K429A;K430A, the “effect of a mutation on the interaction” value is reported as “disrupting interaction”.

Variants of B2 are the subject of another test. Particulars: with ikba_human NFKBIA.
In the case of S176A, the “effect of a mutation on the interaction” value was “decreasing interaction”.

With K44A, the “effect of a mutation on the interaction” value is “disrupting interaction”.

Another test covers variants of B2. As to conditions: with MAP3K14, Q99558.
With S176A, the “effect of a mutation on the interaction” value is recorded as “decreasing interaction”.

In a further test the parent is B2. As to conditions: with ikba_human NFKBIA. The source holds these as a separate data set.
For S176E, the “effect of a mutation on the interaction” value is reported as “increasing interaction”.

The variants in a further test derive from B3. As to conditions: with ikka_human CHUK, O15111.
K429A;K430A: the “effect of a mutation on the interaction” value was “disrupting interaction”.

Variants of B4 are the subject of another test. As to conditions: with ikba_human NFKBIA.
As for K44A, the “effect of a mutation on the interaction” value was “decreasing interaction”.

The values are drawn from IntAct's records for PubMed 9520446.
